In US20220106398A1 (IGM BIOSCIENCES, published 2022):
Each block holds one binder with its values, some of them ahead of it.

Experiments:
[1] = target: T1, GITR on GITR/NFkB-luciferase reporter Jurkat cells (UniProt Q9Y5U5 26-241, limits assumed); assay: cell-based or functional assay
T1 sequence (looked up): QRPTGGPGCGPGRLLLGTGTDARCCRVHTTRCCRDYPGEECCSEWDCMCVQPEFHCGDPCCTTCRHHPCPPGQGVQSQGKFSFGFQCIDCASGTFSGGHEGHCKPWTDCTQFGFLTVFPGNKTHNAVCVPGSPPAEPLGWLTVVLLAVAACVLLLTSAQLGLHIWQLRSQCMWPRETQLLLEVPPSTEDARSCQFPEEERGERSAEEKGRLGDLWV

[2] = target: T2, human GITR on HEK 293 cells (human, UniProt Q9Y5U5 26-241); assay: flow cytometry on HEK 293 cells expressing human GITR
T2 construct: Bought cell line; also called GITR-expressing 293 cells; HEK 293 cells expressing human GITR (CrownBio, #C2011)
T2 sequence: T1 sequence (looked up)
Description: Cells were washed twice, then stained for 30 minutes at 4° C. with 5 ug/mL mouse anti-human kappa-ALEXA FLUOR® 647 secondary antibody (Southern Biotech #9230-31) diluted in FACS buffer. Cells were washed twice, resuspended in FACS Stain Buffer, and signal was acquired by flow cytometry.

EC50 [1]: 5 µg/mL
Max Fold activation [1]: 1.3 fold
B1: GITR-Mab-3 IgM/J* (antibody, not shown: a dimerising Fc or GST; large carriers)
heavy: QVQLVQSGAEVKKPGASVKVSCKASGYTFTSYDINWVRQAPGQGLEWMGWISGYNGNTNYAQKFQGRVTMTRDTSTSTVYMELSSLRSEDTAVYYCARSHEYYYYYGMDVWGQGTLVTVSS
light: EIVMTQSPATLSVSPGERATLSCRASQSVSSSYLAWYQQKPGQAPRLLIYGASTRATGIPARFSGSGSGTEFTLTISSLQSEDFAVYYCQQYYTTPFTFGPGTKVDIK
chain: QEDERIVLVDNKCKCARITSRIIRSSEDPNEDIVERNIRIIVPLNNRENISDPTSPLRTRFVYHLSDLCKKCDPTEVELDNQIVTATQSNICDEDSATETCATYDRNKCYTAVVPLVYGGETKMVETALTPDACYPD

EC50 [1]: 0.34 µg/mL
Max Fold activation [1]: 1.6 fold
B2: GITR-Mab-14 IgM/J* (antibody, not shown: a dimerising Fc or GST; large carriers)
heavy: EVQLLESGGGLVKPGGSLRLSCAASGFRFSVYWMSWVRQAPGKGLEWVSGISGSGGTTYYADSVKGRFTISRDDSKNTLYLQMNSLKTEDTAVYYCARVRRDGYNYNFDYWGQGTLVTVSS
light: DIQMTQSPSSLSASVGDRVTITCQASQDISNYLNWYQQKPGKAPKLLIFDASSLEAGVPSRFSGSGSGTDFTLTISSLQPEDFATYYCQQANSFPPTFGQGTEVEIK
chain: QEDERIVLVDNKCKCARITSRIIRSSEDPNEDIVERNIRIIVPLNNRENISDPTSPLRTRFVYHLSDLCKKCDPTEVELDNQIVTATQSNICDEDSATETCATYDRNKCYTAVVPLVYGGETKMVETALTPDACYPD

binding result [2]: binds
B3: GITR-Mab-6 IgM/J* (antibody)
heavy: QVQLVQSGAEVKKPGASVKVSCKASGYAFTAYYLHWVRQAPGQGLEWMGWMNPNSGNTGYAQKFQGRVTMTRDTSTSTVYMELSSLRSEDTAVYYCAREGWGYYDGGFDPWGQGTLVTVSS
light: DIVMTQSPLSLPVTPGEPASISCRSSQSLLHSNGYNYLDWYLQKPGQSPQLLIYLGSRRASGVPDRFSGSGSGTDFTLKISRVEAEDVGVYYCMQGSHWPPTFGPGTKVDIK
chain: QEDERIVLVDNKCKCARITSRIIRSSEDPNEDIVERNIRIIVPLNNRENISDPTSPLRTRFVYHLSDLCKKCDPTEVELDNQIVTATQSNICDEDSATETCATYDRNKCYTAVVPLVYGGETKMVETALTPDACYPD
notes: IgM with variant J-chain J* (Y102A); not shown: IgM heavy chain constant region of proprietary vector; light chain constant region of proprietary vector (detected with anti-human kapp)
